From patent publication US20140303084
Changes are numbered by the printed parent chain.

Experiments:
[1] = test system: T1, (KLTCLASYCWLF)2═N-O-(CH2)3-O-N═
T1 sequence: KLTCLASYCWLF

[2] = test system: T2, C(N-PEG5kmaleimide)-PEG4-LVPR-PEG4-rRAPGKLTCLASYCWLFWTGIA
T2 sequence: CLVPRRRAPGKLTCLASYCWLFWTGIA

HMQWGKLPCLASYCWLFWYGIG = test system: T3, HMQWGKLPCLASYCWLFWYGIG
T3 sequence: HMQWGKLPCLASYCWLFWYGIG

K-MeLeu-TCLASYCWLF = test system: T4, K-MeLeu-TCLASYCWLF
T4 sequence: KLTCLASYCWLF

KLSCQAGQCWVF = test system: T5, KLSCQAGQCWVF
T5 sequence: KLSCQAGQCWVF

[3] = test system: T6, KLT-Orn-LASY-Glu-WLF-CONH2
T6 sequence: KLTXLASYEWLF

KLTALASYAWLF = test system: T7, KLTALASYAWLF
T7 sequence: KLTALASYAWLF

KLTCLASYAWLF = test system: T8, KLTCLASYAWLF
T8 sequence: KLTCLASYAWLF

KLTCLASYCALF = test system: T9, KLTCLASYCALF
T9 sequence: KLTCLASYCALF

KLTCLASYCWYF = test system: T10, KLTCLASYCWYF
T10 sequence: KLTCLASYCWYF

KLTCLSSYCWLF = test system: T11, KLTCLSSYCWLF
T11 sequence: KLTCLSSYCWLF

KRYVYRQMCLVSACWLLQLGYA = test system: T12, KRYVYRQMCLVSACWLLQLGYA
T12 sequence: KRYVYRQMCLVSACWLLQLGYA

[4] = test system: T13, LQLSYGEQRQ SRAPG KLTCLASYCWLFWTGIA
T13 sequence: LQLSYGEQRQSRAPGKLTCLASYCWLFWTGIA

LTWREKLACLASYCWLFLWGAP = test system: T14, LTWREKLACLASYCWLFLWGAP
T14 sequence: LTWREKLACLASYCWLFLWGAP

[5] = test system: T15, LYPRLYTPGS RRAYG KLTCLASYCWLFWTGIA
T15 sequence: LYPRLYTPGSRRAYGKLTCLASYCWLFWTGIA

[6] = test system: T16, PEG16-Lys(PEG2-Biotin)-PEG16-rRAPGKLTCLASYCWLFWTGIA
T16 sequence: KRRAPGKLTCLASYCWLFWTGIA

[7] = test system: T17, PRIRTVGPGSRSASGKLTCLASYCWLLWTGIA
T17 sequence: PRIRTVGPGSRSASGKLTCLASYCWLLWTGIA

[8] = test system: T18, PRIRTVGSGSRSASGKLTCLASYCWLFWTGIA
T18 sequence: T17 sequence with P8S, L27F

[9] = test system: T19, RR-MeAla-PGKLTCLASYCWLFWTGIA
T19 sequence: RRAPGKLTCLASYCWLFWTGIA

[10] = test system: T20, RRAP-Sar-KLTCLASYCWLFWTGIA
T20 sequence: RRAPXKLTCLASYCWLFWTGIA

[11] = test system: T21, RRAPGKLQCLASYCWLFWT-Aib-IA
T21 sequence: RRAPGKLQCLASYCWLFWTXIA

[12] = test system: T22, RRAPGKLQCLASYCWLFWTG-Cha-A
T22 sequence: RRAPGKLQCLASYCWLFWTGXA

[13] = test system: T23, RRAPGKLQCLASYCWLFWTG-Tle-A
T23 sequence: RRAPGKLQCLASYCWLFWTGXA

[14] = test system: T24, RRAPGKLT-Dap-LASY-Asp-WLFWTGIA-COOH
T24 sequence: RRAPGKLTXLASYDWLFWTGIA

[15] = test system: T25, RRAPGKLTC-MeLeu-ASYCWLFWTGIA
T25 sequence: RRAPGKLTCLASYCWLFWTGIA

[16] = test system: T26, RRAPGKLTCLASYCWK(PEG2-Biotin)FWTGIA
T26 sequence: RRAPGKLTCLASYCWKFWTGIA

[17] = test system: T27, RRAPGKLTCLASYCWLF LTGWA RVPLPPRPHP
T27 sequence: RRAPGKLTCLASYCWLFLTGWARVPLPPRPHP

[18] = test system: T28, RRAPGKLTCLASYCWLF WTAVG GQPYMLLAWR
T28 sequence: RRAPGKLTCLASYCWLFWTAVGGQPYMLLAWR

[19] = test system: T29, RRAPGKLTCLASYCWLFWT-Sar-IA
T29 sequence: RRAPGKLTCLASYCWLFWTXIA

[20] = test system: T30, RRAPGKLTCLASYCWLFWTG-MeIle-A
T30 sequence: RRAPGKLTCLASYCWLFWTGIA

[21] = test system: T31, RRAPGKLTCLASYCWLFWTGK(PEG2-Biotin)A
T31 sequence: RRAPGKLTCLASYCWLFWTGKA

RRAPGKLTCLASYCWLFwTGIA [22] = test system: T32, RRAPGKLTCLASYCWLFwTGIA
T32 sequence: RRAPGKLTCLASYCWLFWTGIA

[23] = test system: T33, RRAPGKLTCLASYCWLK(PEG2-Biotin)WTGIA
T33 sequence: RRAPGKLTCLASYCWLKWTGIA

RRAPGKLTCLAsYCWLFWTGIA [24] = test system: T34, RRAPGKLTCLAsYCWLFWTGIA
T34 sequence: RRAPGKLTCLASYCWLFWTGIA

[25] = test system: T35, SAQGRPISPDrRAAGKLTCLASYCWLFWTGIA
T35 sequence: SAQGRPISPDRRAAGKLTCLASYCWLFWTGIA

[26] = test system: T36, SKQGAPISPDrRAAGKLTCLASYCWLFWTGIA
T36 sequence: T35 sequence with A2K, R5A

[27] = test system: T37, SKQGRPASPDrRAAGKLTCLASYCWLFWTGIA
T37 sequence: T35 sequence with A2K, I7A

[28] = test system: T38, SKQGRPISADrRAAGKLTCLASYCWLFWTGIA
T38 sequence: T35 sequence with A2K, P9A

[29] = test system: T39, SKQGRPISPDrRAAGKLTCLAS-NMeTyr-CWLFWTGIA
T39 sequence: T35 sequence with A2K

[30] = test system: T40, SKQGRPISPDrRAAGKLTCLASYCWLFWT
T40 sequence: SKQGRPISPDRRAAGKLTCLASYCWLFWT

[31] = test system: T41, SKQGRPISPDrRAAGKLTCLASYCWLF
T41 sequence: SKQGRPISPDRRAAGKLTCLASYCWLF

[32] = test system: T42, SKQGRPISSDrRASGKSTCLASYCWLFWTGIA
T42 sequence: T35 sequence with A2K, P9S, A14S, L17S

VSGTGRLTCVASYCWMFQLGSF = test system: T43, VSGTGRLTCVASYCWMFQLGSF
T43 sequence: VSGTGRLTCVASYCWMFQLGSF

compound 18 = test system: T44, compound 18
T44 sequence: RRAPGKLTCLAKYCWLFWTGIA

compound 21 = test system: T45, compound 21
T45 sequence: T17 sequence with L27F

[33] = test system: T46, k-MeLeu-TCLAS-(Y-OMe)-CWLF
T46 sequence: KLTCLASYCWLF

k-MeLeu-TCLASYCWLA = test system: T47, k-MeLeu-TCLASYCWLA
T47 sequence: KLTCLASYCWLA

rRAAGKLTCLASYCWLAATGIA = test system: T48, rRAAGKLTCLASYCWLAATGIA
T48 sequence: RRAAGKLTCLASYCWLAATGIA

rRAPGKLTCLASYCWLSWTGIA = test system: T49, rRAPGKLTCLASYCWLSWTGIA
T49 sequence: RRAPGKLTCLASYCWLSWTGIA

Question: Which Vmax, FXa generation assay [1] does the source give for human Factor IXa here?
Answer: > 3

Question: And the “Vmax, FXa generation assay; (++) means 1-2” value (from here on “Vmax … (++) means 1-2”) [2]?
Answer: (++)

Question: And the Vmax, FXa generation assay (HMQWGKLPCLASYCWLFWYGIG)?
Answer: > 2

Question: And the Vmax, FXa generation assay (K-MeLeu-TCLASYCWLF)?
Answer: > 2

Question: What about the Vmax, FXa generation assay (KLSCQAGQCWVF) of the same substance?
Answer: > 2

Question: And the “Vmax … (++) means 1-2” value [3]?
Answer: (++)

Question: And the Vmax, FXa generation assay (KLTALASYAWLF)?
Answer: > 2

Question: And the “Vmax … (++) means 1-2” value (KLTCLASYAWLF)?
Answer: (++)

Question: What about the Vmax, FXa generation assay (KLTCLASYCALF) of the same substance?
Answer: > 3

Question: What about the Vmax, FXa generation assay (KLTCLASYCWYF) of the same substance?
Answer: > 2

Question: What about the Vmax, FXa generation assay (KLTCLSSYCWLF) of the same substance?
Answer: > 2

Question: What about the “Vmax … (++) means 1-2” value (KRYVYRQMCLVSACWLLQLGYA) of the same substance?
Answer: (++)

Question: What about the “Vmax … (++) means 1-2” value [4] of the same substance?
Answer: (++)

Question: And the “Vmax … (++) means 1-2” value (LTWREKLACLASYCWLFLWGAP)?
Answer: (++)

Question: And the Vmax, FXa generation assay [5]?
Answer: > 2

Question: What about the Vmax, FXa generation assay [6] of the same substance?
Answer: > 3

Question: What about the Vmax, FXa generation assay [7] of the same substance?
Answer: > 3

Question: What about the Vmax, FXa generation assay [8] of the same substance?
Answer: > 3

Question: What about the Vmax, FXa generation assay [9] of the same substance?
Answer: > 3

Question: And the Vmax, FXa generation assay [10]?
Answer: > 2

Question: And the “Vmax … (++) means 1-2” value [11]?
Answer: (++)

Question: And the Vmax, FXa generation assay [12]?
Answer: > 3

Question: What about the Vmax, FXa generation assay [13] of the same substance?
Answer: > 2

Question: And the Vmax, FXa generation assay [14]?
Answer: > 0.8

Question: And the “Vmax … (++) means 1-2” value [15]?
Answer: (++)

Question: And the Vmax, FXa generation assay [16]?
Answer: > 3

Question: And the “Vmax … (++) means 1-2” value [17]?
Answer: (++)

Question: What about the “Vmax … (++) means 1-2” value [18] of the same substance?
Answer: (++)

Question: What about the Vmax, FXa generation assay [19] of the same substance?
Answer: > 3

Question: What about the Vmax, FXa generation assay [20] of the same substance?
Answer: > 2.3

Question: And the “Vmax … (++) means 1-2” value [21]?
Answer: (++)

Question: What about the “Vmax … (++) means 1-2” value (RRAPGKLTCLASYCWLFwTGIA [22]) of the same substance?
Answer: (++)

Question: And the Vmax, FXa generation assay [23]?
Answer: > 2

Question: What about the “Vmax … (++) means 1-2” value (RRAPGKLTCLAsYCWLFWTGIA [24]) of the same substance?
Answer: (++)

Question: What about the Vmax, FXa generation assay [25] of the same substance?
Answer: > 2

Question: And the Vmax, FXa generation assay [26]?
Answer: > 3

Question: What about the Vmax, FXa generation assay [27] of the same substance?
Answer: > 2

Question: And the Vmax, FXa generation assay [28]?
Answer: > 3

Question: What about the Vmax, FXa generation assay [29] of the same substance?
Answer: > 0.3

Question: And the Vmax, FXa generation assay [30]?
Answer: > 2

Question: What about the Vmax, FXa generation assay [31] of the same substance?
Answer: > 3

Question: And the Vmax, FXa generation assay [32]?
Answer: > 3

Question: What about the “Vmax … (++) means 1-2” value (VSGTGRLTCVASYCWMFQLGSF) of the same substance?
Answer: (++)

Question: And the Vmax, FXa generation assay with hFIXa (compound 18)?
Answer: > 2

Question: What about the Vmax, FXa generation assay with hFIXa (compound 21) of the same substance?
Answer: > 3

Question: And the Vmax, FXa generation assay [33]?
Answer: > 3

Question: And the Vmax, FXa generation assay (k-MeLeu-TCLASYCWLA)?
Answer: > 2

Question: And the Vmax, FXa generation assay (rRAAGKLTCLASYCWLAATGIA)?
Answer: > 0.8

Question: And the Vmax, FXa generation assay (rRAPGKLTCLASYCWLSWTGIA)?
Answer: > 1.8
